Data from patent US6797812B2, “Caspase-14, an apoptotic protease, nucleic acids encoding and methods of use” (Thomas Jefferson University, priority 1997, dated 2004).

How the values were obtained:
mouse procaspase-14 = biological target: T1, mouse procaspase-14 (Mus musculus, UniProt O89094); assay: Processing of 35S labeled procaspase-14 by Granzyme B and purified recombinant caspases; type: biochemical; details: Granzyme B 14 ng/μl or recombinant caspases 20 ng/μl, ICE buffer, 37° C., 1 h, FIG. 5B
T1 construct: made in house
T1 sequence (O89094 1-257): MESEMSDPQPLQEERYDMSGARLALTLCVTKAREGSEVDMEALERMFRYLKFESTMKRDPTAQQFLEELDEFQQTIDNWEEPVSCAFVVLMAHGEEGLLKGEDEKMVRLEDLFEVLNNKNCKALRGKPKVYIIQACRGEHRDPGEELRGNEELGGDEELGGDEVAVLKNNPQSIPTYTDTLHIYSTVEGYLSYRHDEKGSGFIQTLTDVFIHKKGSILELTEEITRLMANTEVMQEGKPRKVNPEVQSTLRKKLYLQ
Protocol: Upon expression in bacteria, all procaspases are known to autoprocess to various degrees to generate the mature caspase which is composed of the large and small subunits. The observed auto-activation in bacterial overexpression systems is probably mediated by overexpression-induced oligomerization. […] To test this possibility procaspase-14 was incubated with Granzyme B which is known to process several caspase proenzymes. In addition procaspase-14 was incubated with different purified recombinant caspases.
Processing of mouse procaspase-14 by Granzyme B and purified recombinant caspases was carried out under the following conditions: ^35S labeled procaspase-14 was incubated with purified Granzyme B (14 ng/μl) or the indicated purified recombinant caspases (20 ng/μl) in ICE buffer (25 mM Hepes, 1 mM EDTA, 5 mM DTT, 0.1% CHAPS, pH 7.5) at 37° C. for 1 h. The reactions were stopped by addition of an SDS-sample buffer and then the products were analyzed by SDS-PAGE and autoradiography.

MCF-7 cells = assay: Overexpression of procaspases in MCF-7 cells, morphological signs of apoptosis; type: cell-based; details: transient transfection, X-gal staining 30 h after transfection, FIG. 4
Excerpt: On the other hand overexpression of the large prodomain initiator procaspases such as procaspase-8 can induce apoptosis, due to their ability to undergo prodomain-mediated oligomerization. To test the ability of procaspase-14 to induce apoptosis in transfected cells, MCF-7 cells were transiently transfected with procaspase-14 in a PRSC lac-Z expression construct under the CMV promoter. Cells were also transfected with an empty vector or constructs encoding procaspase-3, -6, -8, or -10 as controls. The cells were stained with X-gal 30 h after transfection and examined for morphological signs of apoptosis The percentage of round blue apoptotic cells (mean±SD) were represented as a function of total blue cells under each condition (n≧3). SD was less than 5%.

[1] = Autoprocessing of procaspases overexpressed in bacteria (SDS-PAGE, Coomassie); type: biochemical; details: expressed in Escherichia coli, Talon-affinity purified, FIG. 5A
[2] = tested on: S100 extracts from human embryonic kidney 293 cells; assay: Cytochrome c dependent processing of procaspases in S100 extracts; type: biochemical; details: cytochrome c 50 ng/μl, dATP 1 mM, 30° C., 1 h, FIG. 6
Protocol: To determine if caspase-14 was activated by a way of Apaf-1 and caspase-9, cytochrome c dependent activation was tested. ^35S labeled procaspase-3 (FIG. 6, lanes 1 & 2), procaspase-7 (FIG. 6, lanes 3 & 4), or procaspase-14 (FIG. 6, lanes 5 & 6) were incubated with S100 extracts from human embryonic kidney 293 cells in the absence (−) or presence (+) of cytochrome c (50 ng/μl) and dATP (1 mM) in buffer A (20 mM Hepes, 10 mM KCl, 1.5 mM MgCl2, 1 mM EDTA, 1 mM EGTA, 1 mM DTT, 0.1 mM PMSF, pH 7.5) at 30° C. for 1 h. The reaction products were then analyzed by SDS-PAGE and autoradiography.

procaspase-14 = assay: Processing of T7-tagged procaspase-14 in MCF-7-FAS cells after anti-Fas antibody or TRAIL; type: cell-based; details: treated 36 h after transfection for 3 h, FIG. 5C
Protocol: (§1) Since caspase-8 and -10 are initiator caspases that are activated by oligomerization of the death receptors (i.e., Fas, TRAIL-R) by their ligands or agonist antibodies, the possibility that procaspase-14 is processed in vivo after induction of apoptosis by anti-Fas antibody or the cytotoxic ligand TRAIL was tested. A mammalian expression construct encoding N-terminal T7-tagged procaspase-14 was transfected into MCF-7-FAS cells. The cells were treated 36 h after transfection with agonist anti-Fas antibody or TRAIL for 3 h. Cells were harvested and lysed by addition of SDS-sample buffer. The cellular proteins were analyzed by SDS-PAGE and then immunoblotted with an anti-T7 HRP-conjugated monoclonal antibody (FIG. 5C, left panel) to detect procaspase-14. The same samples were also immunoblotted with a polyclonal antibody (anti-Mch3α) that preferentially detects the proform of caspase-7 (FIG. 5C, middle panel), or a mixture of the anti-Mch3α antibody and CM-1 antibody that preferentially detects the processes fragments of caspase-7 (FIG. 5C, right panel) to detect the endogenous caspase-7. Pro indicates the proenzyme, LS indicates the large subunit and SS indicates the small subunit. […] The cleavage products of procaspase-14 were not clearly detectable probably due to loss of the epitope tag after processing of the small prodomain of procaspase-14 at Asp7 or Asp 17. […]

procaspase-7 = assay: Processing of endogenous procaspase-7 in MCF-7-FAS cells after anti-Fas antibody or TRAIL; type: cell-based; details: treated for 3 h, FIG. 5C
Protocol: as §1

For “Granzyme B: purified protease known to process several caspase proenzymes”, the “processing of procaspase-14” value (mouse procaspase-14) was “significant amount of processing”.

B1: procaspase-3: small prodomain executioner procaspase used as control (protein, UniProt P42574 1-277, looked up)
pro-form: MENTENSVDSKSIKNLEPKIIHGSESMDSGISLDNSYKMDYPEMGLCIIINNKNFHKSTGMTSRSGTDVDAANLRETFRNLKYEVRNKNDLTREEIVELMRDVSKEDHSKRSSFVCVLLSHGEEGIIFGTNGPVDLKKITNFFRGDRCRSLTGKPKLFIIQACRGTELDCGIETDSGVDDDMACHKIPVEADFLYAYSTAPGYYSWRNSKDGSWFIQSLCAMLKQYADKLEFMHILTRVNRKVATEFESFSFDATFHAKKQIPCIVSMLTKELYFYH
modifications: pro-form
notes: small prodomain executioner procaspase used as control
With B1 the “induction of apoptosis (round blue apoptotic cells as a function of total blue cells)” value (MCF-7 cells) was “unable to induce any significant amount of apoptosis” and the “processing of the proenzyme on overexpression in bacteria” value [1] was “completely processes”.

B2: procaspase-14: proenzyme of caspase-14, a cell death specific cysteine protease of the caspase family (mouse SEQ ID NO:2) (protein)
chain: KPDMESEMSDPQPLQEERYDMSGARLALTLCVTKAREGSEVDMEALERMFRYLKFESTMKRDPTAQQFLEELDEFQQTIDNWEEPVSCAFVVLMAHGEEGLLKGEDEKMVRLEDLFEVLNNKNCKALRGKPKVYIIQACRGEHRDPGEELRGNEELGGDEELGGDEVAVLKNNPQSIPTYTDTLHIYSTVEGYLSYRHDEKGSGFIQTLTDVFIHKKGSILELTEEITRLMANTEVMQEGKPRKVNPEVQSTLRKKLYLQ
With B2 the “induction of apoptosis (round blue apoptotic cells as a function of total blue cells)” value (MCF-7 cells) was “unable to induce any significant amount of apoptosis”, the “processing of the proenzyme on overexpression in bacteria” value [1] was “no significant processing” and the “cleavage/activation in S-100 extracts activated by cytochrome c and dATP” value [2] was “no cleavage/activation”.

B3: caspase-14: purified recombinant caspase-14 material containing small amount of active caspase-14 (protein)
chain: B2 chain
With B3 the “processing of procaspase-14” value (mouse procaspase-14) was “Some processing”.

B4: TRAIL: cytotoxic ligand TRAIL (protein, UniProt P50591 1-281, looked up)
Tumor necrosis factor ligand …: MAMMEVQGGPSLGQTCVLIVIFTVLLQSLCVAVTYVYFTNELKQMQDKYSKSGIACFLKEDDSYWDPNDEESMNSPCWQVKWQLRQLVRKMILRTSEETISTVQEKQQNISPLVRERGPQRVAAHITGTRGRSNTLSSPNSKNEKALGRKINSWESSRSGHSFLSNLHLRNGELVIHEKGFYYIYSQTYFRFQEEIKENTKNDKQMVQYIYKYTSYPDPILLMKSARNSCWSKDAEYGLYSIYQGGIFELKENDRIFVSVTNEHLIDMDHEASFFGAFLVG
In the case of B4, the “processing of procaspase-14 (decreased intensity of proenzyme band)” value (procaspase-14) is reported as “able to induce processing” and the “processing of procaspase-7 (decreased intensity of proenzyme band)” value (procaspase-7) is reported as “able to induce processing”.
